Data set [1] has as its target T1, HSV-1 UL9 (origin-binding protein UL9) (Human alphaherpesvirus 1 strain 17, UniProt P10193).
T1 construct: full ORF from plasmid pCM-UL9, C-terminal 3C-ybbR-TEV-StrepII tag, insect cells (Sf9/High5), StrepTrap and heparin; dimer; tag kept in unlabeled protein, TEV added on atto647N labelling
As to the kind of experiment: single-molecule TIRF (ALEX), UL9-atto647N dwell time on oriS DNA. To be noted: 1 mM ATPγS, 20 nM UL9-atto647N, 1 mM MgCl2, pH 7.5; not an affinity constant.

The target of data set [2] is T2, UL9-atto647N (Human herpesvirus 1 (HSV-1)) (UniProt P10193).
T2 sequence: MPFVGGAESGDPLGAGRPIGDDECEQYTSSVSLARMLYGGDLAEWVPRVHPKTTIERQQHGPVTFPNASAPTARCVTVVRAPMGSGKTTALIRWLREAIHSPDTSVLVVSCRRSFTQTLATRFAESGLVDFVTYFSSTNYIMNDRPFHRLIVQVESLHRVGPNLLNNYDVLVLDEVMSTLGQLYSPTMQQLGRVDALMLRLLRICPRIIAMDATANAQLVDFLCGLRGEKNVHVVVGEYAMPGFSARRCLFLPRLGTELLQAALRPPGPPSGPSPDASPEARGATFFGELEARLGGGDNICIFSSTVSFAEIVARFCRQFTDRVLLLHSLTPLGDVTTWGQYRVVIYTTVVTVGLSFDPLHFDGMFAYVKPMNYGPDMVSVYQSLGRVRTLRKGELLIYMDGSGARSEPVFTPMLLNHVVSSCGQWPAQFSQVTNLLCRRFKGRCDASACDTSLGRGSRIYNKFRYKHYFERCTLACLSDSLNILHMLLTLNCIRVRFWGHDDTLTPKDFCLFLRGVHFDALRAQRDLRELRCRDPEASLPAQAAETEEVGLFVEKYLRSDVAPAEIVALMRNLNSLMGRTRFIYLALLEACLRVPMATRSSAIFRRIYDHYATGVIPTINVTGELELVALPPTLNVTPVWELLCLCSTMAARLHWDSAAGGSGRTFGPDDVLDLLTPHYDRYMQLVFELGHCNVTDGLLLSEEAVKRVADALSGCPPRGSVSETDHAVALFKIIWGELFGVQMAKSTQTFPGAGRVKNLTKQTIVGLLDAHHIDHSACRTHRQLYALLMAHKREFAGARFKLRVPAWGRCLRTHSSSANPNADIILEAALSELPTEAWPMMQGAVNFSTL
Kind of data set: single-molecule TIRF/FRET. To be noted: C6-amino-dT at 5' end of strand 1 and internal (position 10) in strand 2; UL9 buffer: 40 mM Tris-Cl pH 7.5, 50 mM NaCl, 50 mM K-glutamate, 1 mM MgCl2, 0.5 mM DTT, 0.1 mg/ml BSA; EMSA at room temperature, 5 min; TIRF with oxygen ….

Data set [3] addresses T3, UL9 origin-binding protein (Human herpesvirus 1 (HSV-1)) (UniProt P10193).
T3 sequence: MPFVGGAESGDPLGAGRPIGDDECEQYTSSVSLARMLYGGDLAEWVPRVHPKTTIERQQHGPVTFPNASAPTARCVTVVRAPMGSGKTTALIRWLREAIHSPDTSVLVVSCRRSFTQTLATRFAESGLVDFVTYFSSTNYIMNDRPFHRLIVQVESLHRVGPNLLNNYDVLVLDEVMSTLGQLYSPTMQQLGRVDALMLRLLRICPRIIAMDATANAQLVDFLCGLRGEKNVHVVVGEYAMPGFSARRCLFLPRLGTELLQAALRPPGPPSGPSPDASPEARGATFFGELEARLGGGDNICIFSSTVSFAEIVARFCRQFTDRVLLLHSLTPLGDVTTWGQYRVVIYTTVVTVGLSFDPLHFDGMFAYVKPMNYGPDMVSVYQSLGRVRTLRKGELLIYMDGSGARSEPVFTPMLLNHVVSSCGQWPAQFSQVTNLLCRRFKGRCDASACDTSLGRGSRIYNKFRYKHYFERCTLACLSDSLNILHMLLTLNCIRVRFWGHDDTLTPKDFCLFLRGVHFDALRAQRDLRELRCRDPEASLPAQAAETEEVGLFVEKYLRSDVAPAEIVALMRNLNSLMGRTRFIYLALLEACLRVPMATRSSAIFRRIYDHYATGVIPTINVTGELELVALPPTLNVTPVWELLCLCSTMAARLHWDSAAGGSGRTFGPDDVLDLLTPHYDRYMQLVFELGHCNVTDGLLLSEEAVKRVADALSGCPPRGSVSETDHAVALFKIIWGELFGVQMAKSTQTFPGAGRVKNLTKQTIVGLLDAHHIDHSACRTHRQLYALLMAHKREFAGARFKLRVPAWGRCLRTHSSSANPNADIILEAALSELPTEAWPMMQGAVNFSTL
As to the kind of experiment: EMSA. Particulars: C6-amino-dT at 5' end of strand 1 and internal (position 10) in strand 2; UL9 buffer: 40 mM Tris-Cl pH 7.5, 50 mM NaCl, 50 mM K-glutamate, 1 mM MgCl2, 0.5 mM DTT, 0.1 mg/ml BSA; EMSA at room temperature, 5 min; TIRF with oxygen ….

For data set [4], the target named is UL9 origin-binding protein (Human herpesvirus 1 (HSV-1), UniProt P10193 1-851). As to the kind of experiment: single-molecule TIRF DNA capture; trans tethering to immobilized oriS (30.0 ± 6.9% of molecules); 20 nM UL9, no ATP; UL9 buffer: 40 mM Tris-Cl pH 7.5, 50 mM NaCl, 50 mM K-glutamate, 1 mM MgCl2, 0.5 mM DTT, 0.1 mg/ml BSA; EMSA at room temperature, 5 min; TIRF with oxygen scavenger. Particulars: protein: recombinant; tags: C-terminal 3C-ybbR-TEV-StrepII; chain copies: 2; label: Cy5 on strand 1; strand 1 5' overhang 1 nt (amino-dT).

Data set [5] deals with the molecule itself. Kind of data set: single-molecule photobleaching steps (prism-TIRF with alternating laser excitation).

For the molecule `Nc1ncnc2c1ncn2[C@@H]1O[C@H](COP(=O)(O)OP(=O)(O)OP(O)(O)=S)[C@@H](O)[C@H]1O` [ATPγS], in data set [1], the “τon, avg” value turned out to be 4.2 ± 0.1 s. Consider “TCCAGTGCTCGCACTTCGCCCTAATAATATATATATATTGGGACGAAGTGCGAACGCTTCGCGTTCTCACTTC / AAAAAAAAATGAAGTGAGAACGCGAAGCGTTCGCACTTCGTCCCAATATATATATATTATTAGGGCGAAGTGCGAGCACTGG [oriS template AM057/AM071]”, for which the Kd in data set [2] was 31.9 nM; in data set [3] it was 131 nM. Also, the K half in data set [3] turned out to be 13 nM.

B1: Cy5-oriS capture DNA AM057/AM058 (dsDNA)
DNA 1: TCCAGTGCTCGCACTTCGCCCTAATAATATATATATATTGGGACGAAGTGCGAACGCTTCGCGTTCTCACTTC
DNA 2: GAAGTGAGAACGCGAAGCGTTCGCACTTCGTCCCAATATATATATATTATTAGGGCGAAGTGCGAGCACTGG
modifications: C6-amino-dT at 5' end of strand 1
For the molecule B1, the binding result in data set [4] is on record as “binds”.

B2: HSV-1 origin-binding protein UL9 labelled at its C-terminus with atto647N through a ybbR-tag (natural protein)
chain: MPFVGGAESGDPLGAGRPIGDDECEQYTSSVSLARMLYGGDLAEWVPRVHPKTTIERQQHGPVTFPNASAPTARCVTVVRAPMGSGKTTALIRWLREAIHSPDTSVLVVSCRRSFTQTLATRFAESGLVDFVTYFSSTNYIMNDRPFHRLIVQVESLHRVGPNLLNNYDVLVLDEVMSTLGQLYSPTMQQLGRVDALMLRLLRICPRIIAMDATANAQLVDFLCGLRGEKNVHVVVGEYAMPGFSARRCLFLPRLGTELLQAALRPPGPPSGPSPDASPEARGATFFGELEARLGGGDNICIFSSTVSFAEIVARFCRQFTDRVLLLHSLTPLGDVTTWGQYRVVIYTTVVTVGLSFDPLHFDGMFAYVKPMNYGPDMVSVYQSLGRVRTLRKGELLIYMDGSGARSEPVFTPMLLNHVVSSCGQWPAQFSQVTNLLCRRFKGRCDASACDTSLGRGSRIYNKFRYKHYFERCTLACLSDSLNILHMLLTLNCIRVRFWGHDDTLTPKDFCLFLRGVHFDALRAQRDLRELRCRDPEASLPAQAAETEEVGLFVEKYLRSDVAPAEIVALMRNLNSLMGRTRFIYLALLEACLRVPMATRSSAIFRRIYDHYATGVIPTINVTGELELVALPPTLNVTPVWELLCLCSTMAARLHWDSAAGGSGRTFGPDDVLDLLTPHYDRYMQLVFELGHCNVTDGLLLSEEAVKRVADALSGCPPRGSVSETDHAVALFKIIWGELFGVQMAKSTQTFPGAGRVKNLTKQTIVGLLDAHHIDHSACRTHRQLYALLMAHKREFAGARFKLRVPAWGRCLRTHSSSANPNADIILEAALSELPTEAWPMMQGAVNFSTL
modifications: atto647N (CoA-conjugated dye, attached by Sfp transferase) on the C-terminal ybbR tag
notes: also called UL9-atto647N; not shown: ybbR, C-terminal, kept; strepII, C-terminal, cleaved
With B2, the “stoichiometry N” value in data set [5] came to 2.
